{"source": "patent US5262522", "key": {"[1]": {"molecular_target": "High affinity oncostatin M receptors on non-transfected COS-7 cells", "assay": "Scatchard analysis of 125I-oncostatin M binding to non-transfected COS-7 cells (FIG. 3 experiment), phthalate oil separation"}, "[2]": {"molecular_target": "T1, Human gp130 encoded by plasmid B10G, expressed on COS-7 cells (human)", "T1 sequence": "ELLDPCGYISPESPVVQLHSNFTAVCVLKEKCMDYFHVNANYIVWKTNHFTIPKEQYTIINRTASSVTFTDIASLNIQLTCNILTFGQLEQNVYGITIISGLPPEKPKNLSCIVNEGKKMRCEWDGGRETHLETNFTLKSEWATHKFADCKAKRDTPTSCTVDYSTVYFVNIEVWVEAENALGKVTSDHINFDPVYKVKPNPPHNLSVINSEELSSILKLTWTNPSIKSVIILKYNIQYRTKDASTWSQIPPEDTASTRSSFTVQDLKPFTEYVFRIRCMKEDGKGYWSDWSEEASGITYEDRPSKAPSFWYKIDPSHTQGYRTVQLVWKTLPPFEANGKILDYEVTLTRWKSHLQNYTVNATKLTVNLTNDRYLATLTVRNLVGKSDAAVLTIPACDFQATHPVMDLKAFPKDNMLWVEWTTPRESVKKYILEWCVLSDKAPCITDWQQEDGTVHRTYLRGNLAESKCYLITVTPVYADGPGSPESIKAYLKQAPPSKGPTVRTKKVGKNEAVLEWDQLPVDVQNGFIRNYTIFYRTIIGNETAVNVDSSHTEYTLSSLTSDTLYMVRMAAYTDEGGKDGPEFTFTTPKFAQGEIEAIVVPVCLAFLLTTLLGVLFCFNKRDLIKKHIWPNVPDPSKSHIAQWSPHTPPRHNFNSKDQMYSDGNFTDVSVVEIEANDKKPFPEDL", "assay": "Scatchard analysis of 125I-oncostatin M binding to COS-7 cells transfected with B10G alone (FIG. 3 experiment), phthalate oil separation"}, "[3]": {"molecular_target": "Receptor comprising gp130 (B10G) and LIF-R (pHLIFR-65) co-expressed on COS-7 cells (human)", "assay": "Scatchard analysis of 125I-oncostatin M binding to COS-7 cells co-transfected with B10G and pHLIFR-65 (curve A of FIG. 2), phthalate oil separation"}}}
{"binder": "Oncostatin M (ligand, UniProt P13725 26-221, looked up, species assumed, 125I label in some uses) Oncostatin-M: AAIGSCSKEYRVLLGQLQKQTDLMQDTSRLLDPYIRIQGLDVPKLREHCRERPGAFPSEETLRGLGRRGFLQTLNATLGCVLHRLADLEQRLPKAQDLERSGLNIEDLEKLQMARPNILGLRNNIYCMAQLLDNSDTAEPTKAGRGASQPPTPTPASDAFQRKLEGCRFLHGYHRFMHSVGRVFSKWGESPNRSRR", "values": [{"measurement": "Kd", "setting": "[1]", "value": 360, "unit": "pM"}, {"measurement": "Kd", "setting": "[2]", "value": 7700, "unit": "pM"}, {"measurement": "Kd", "setting": "[3]", "value": 240, "unit": "pM"}]}
